We go through 167 variants from the RNAGym collection of RNA variant scans (doi:10.7554/elife.80360).

To fix the notation:
B1: Hairpin Ribozyme (parent)
chain: GUCCUCUUUCACGUGCGCGUGAAAGAGAGAAGUGAACCAGAGAAACACACGUUGUGGUAUAUUACCUGGUA

Variants of B1 are the subject of the data set. As to the kind of experiment: self-cleavage, relative activity (ratio to wild type); higher = more cleavage; co-transcriptional.
C3G A23C: the self-cleavage came to 0.194.

With C3A C37G, the self-cleavage was 0.32.

Turning to C3G G42U, the self-cleavage was found to be 0.188.

Take C3G A44C: the self-cleavage amounted to 0.153.

In the case of U2C A44C, the self-cleavage is 0.0731.

For U2C A44G, the self-cleavage is 0.275.

As to C3A U60G, the self-cleavage was determined as 0.338.

For U2A C46G, the self-cleavage came to 0.0818.

Turning to U2C A35G, the self-cleavage worked out at 0.243.

For U2C A35U, the self-cleavage came out at 0.259.

Take U2A A61U: the self-cleavage was determined as 0.159.

As to U2A A61G, the self-cleavage was determined as 0.106.

In the case of U2C A11G, the self-cleavage was 0.172.

Take U2A G13U: the self-cleavage is 0.186.

Turning to U2A G15C, the self-cleavage came out at 0.391.

Consider U2A A41C, for which the self-cleavage amounted to 0.379.

Take U2A A41G: the self-cleavage was found to be 0.0798.

Take U2G A49U: the self-cleavage worked out at 0.053.

For the variant U2G C12G, the self-cleavage came out at 0.184.

In the case of U2G A36G, the self-cleavage was 0.274.

For the variant U2G A36C, the self-cleavage came to 0.208.

On to U2G C65U, for which the self-cleavage worked out at 0.163.

For the variant U2G C65A, the self-cleavage amounted to 0.402.

Take U2A G54C: the self-cleavage turned out to be 0.145.

Consider U2A G54A, for which the self-cleavage was found to be 0.143.

For the variant C3G A59C, the self-cleavage amounted to 0.064.

C3G A49G: the self-cleavage amounted to 0.148.

For the variant C3A C46G, the self-cleavage was 0.105.

For the variant U2C G51U, the self-cleavage was found to be 0.172.

Take C3G G68C: the self-cleavage stood at 0.188.

Take U2A U62G: the self-cleavage came to 0.088.

For U2G A41C, the self-cleavage came to 0.566.

Turning to U2G U5G, the self-cleavage was found to be 0.0759.

On to C3G A26U, for which the self-cleavage stood at 0.214.

Regarding U2C C46U, the self-cleavage came to 0.133.

Take U2G A45U: the self-cleavage amounted to 0.0683.

For U2G A45C, the self-cleavage is 0.0592.

Regarding U2G A39C, the self-cleavage is 0.177.

Turning to U2A U33C, the self-cleavage is 0.0635.

As for U2A U33G, the self-cleavage is 0.151.

U2C A30G: the self-cleavage was 0.349.

As to C3A G51A, the self-cleavage came out at 0.819.

Take C3A G27C: the self-cleavage was found to be 0.21.

Regarding C3A U58A, the self-cleavage is 0.637.

As for C3A U58G, the self-cleavage came to 0.274.

Take C3A U58C: the self-cleavage worked out at 0.811.

In the case of C3G G69U, the self-cleavage came to 0.141.

With C3A U67C, the self-cleavage amounted to 0.155.

For U2C C37A, the self-cleavage stood at 0.0991.

Regarding C3A U33C, the self-cleavage came to 0.191.

Turning to C3A U33G, the self-cleavage was determined as 0.146.

For the variant U2G U33A, the self-cleavage was 0.115.

As for C3A G32C, the self-cleavage was determined as 0.114.

With C3A G32U, the self-cleavage was 0.0959.

C3A G32A: the self-cleavage was 0.176.

As for U2C G15C, the self-cleavage was 0.243.

For the variant U2G U7A, the self-cleavage was 0.255.

Take U2G U7C: the self-cleavage is 0.384.

Turning to U2G U7G, the self-cleavage came out at 0.35.

Turning to C3A G34A, the self-cleavage was found to be 1.07.

As for U2G G27U, the self-cleavage worked out at 0.172.

In the case of U2G G27A, the self-cleavage was 0.139.

Regarding U2C C65A, the self-cleavage came to 0.195.

C3A C50U: the self-cleavage worked out at 0.236.

With C3A C50A, the self-cleavage was determined as 0.145.

As to U2A G32C, the self-cleavage was found to be 0.0974.

Take U2C A59U: the self-cleavage was determined as 0.108.

Turning to U2A C50G, the self-cleavage was determined as 0.189.

On to U2A A44G, for which the self-cleavage is 0.119.

Regarding C3A C66G, the self-cleavage is 0.234.

Regarding C3A C66A, the self-cleavage was 0.188.

Regarding C3A C66U, the self-cleavage amounted to 0.435.

In the case of C3G A28G, the self-cleavage was 0.362.

Take C3G A28C: the self-cleavage worked out at 0.541.

As to U2G G40A, the self-cleavage turned out to be 0.105.

C3G G27U: the self-cleavage is 0.164.

Regarding U2C G27C, the self-cleavage worked out at 0.153.

As to U2G G13A, the self-cleavage came to 0.338.

For the variant C3G C4G, the self-cleavage is 0.244.

Take U2G A31G: the self-cleavage turned out to be 0.281.

As to U2G A31U, the self-cleavage came to 0.

Take U2G A31C: the self-cleavage was 0.0758.

C3A G54U: the self-cleavage came to 0.403.

As for U2G U14G, the self-cleavage was 0.322.

Regarding U2C U70G, the self-cleavage is 0.269.

Turning to U2C U70C, the self-cleavage worked out at 0.16.

On to U2A G40U, for which the self-cleavage is 0.129.

U2C G17A: the self-cleavage was determined as 0.15.

As to U2C G17C, the self-cleavage came to 0.168.

For the variant U2G C37U, the self-cleavage came to 0.319.

As to U2G C37A, the self-cleavage was 0.131.

Turning to U2A C3A, the self-cleavage is 0.401.

As to U2A U60C, the self-cleavage turned out to be 0.542.

As to U2A U60G, the self-cleavage was determined as 0.222.

For the variant U2G G34C, the self-cleavage stood at 0.736.

Take U2A G57U: the self-cleavage is 0.109.

With C3G G21U, the self-cleavage came to 0.252.

On to U2C G40U, for which the self-cleavage amounted to 0.103.

For U2C A45U, the self-cleavage was 0.0729.

For C3A G69U, the self-cleavage is 0.212.

In the case of C3A G69A, the self-cleavage was 0.275.

On to C3G G54A, for which the self-cleavage was 0.177.

Take U2C C10U: the self-cleavage was 0.159.

As for U2C C10A, the self-cleavage was determined as 0.117.

With U2C C10G, the self-cleavage turned out to be 0.118.

C3A G15C: the self-cleavage stood at 0.65.

For the variant U2A C4A, the self-cleavage is 0.165.

Turning to U2C G29U, the self-cleavage is 0.0528.

Consider U2C G29C, for which the self-cleavage worked out at 0.16.

Consider U2A U7G, for which the self-cleavage stood at 0.197.

As for U2A U7C, the self-cleavage is 0.273.

Take U2A C6U: the self-cleavage is 0.182.

U2A C6A: the self-cleavage was 0.238.

With U2A C6G, the self-cleavage was determined as 0.247.

As to C3G C16U, the self-cleavage turned out to be 0.305.

In the case of U2G U8A, the self-cleavage stood at 0.295.

With U2A A64C, the self-cleavage was found to be 0.112.

On to C3A A43G, for which the self-cleavage was determined as 0.143.

As for C3G C50A, the self-cleavage came to 0.0499.

On to C3G C50U, for which the self-cleavage is 0.13.

Regarding C3A A24G, the self-cleavage is 0.704.

For the variant U2C U33C, the self-cleavage amounted to 0.223.

Take U2C U33G: the self-cleavage is 0.0942.

As for C3A G57U, the self-cleavage is 0.153.

Take U2C A61C: the self-cleavage was 0.0902.

Regarding U2A G42A, the self-cleavage was found to be 0.107.

Take U2A U20G: the self-cleavage came out at 0.201.

Consider U2C U58C, for which the self-cleavage was found to be 0.175.

Take C3A C6A: the self-cleavage worked out at 0.484.

Regarding U2G G57C, the self-cleavage came to 0.117.

U2C A39U: the self-cleavage worked out at 0.249.

Take U2G C66G: the self-cleavage was 0.124.

On to U2A A35U, for which the self-cleavage was 0.174.

Consider C3A G40C, for which the self-cleavage was 0.0884.

Consider C3A A47C, for which the self-cleavage came out at 0.239.

On to U2A G29U, for which the self-cleavage came out at 0.111.

For the variant U2G U67A, the self-cleavage came out at 0.139.

For the variant U2C C66G, the self-cleavage amounted to 0.0316.

Take U2C C66A: the self-cleavage came out at 0.0248.

Regarding U2C G34U, the self-cleavage is 0.316.

With U2C G34C, the self-cleavage stood at 0.208.

In the case of C3A A49G, the self-cleavage was 0.426.

For U2G C48U, the self-cleavage came to 0.117.

Take U2C U67C: the self-cleavage came out at 0.0838.

For C3A G25A, the self-cleavage was 0.457.

Consider C3G A47G, for which the self-cleavage was 0.179.

Take U2G C16A: the self-cleavage came out at 0.398.

C3G A43G: the self-cleavage came out at 0.0516.

C3G A43U: the self-cleavage came out at 0.111.

For the variant C3G A43C, the self-cleavage came to 0.168.

As for U2C C18A, the self-cleavage was 0.118.

For U2C C18G, the self-cleavage was 0.154.

Take C3A C12A: the self-cleavage amounted to 0.603.

Take C3A C12G: the self-cleavage turned out to be 0.636.

Take U2C C16U: the self-cleavage was 0.163.

For the variant C3A G56C, the self-cleavage turned out to be 0.147.

U2G U58C: the self-cleavage is 0.384.

Turning to U2C C50U, the self-cleavage is 0.252.

Consider U2A G69A, for which the self-cleavage amounted to 0.215.

As to U2A A43C, the self-cleavage was 0.114.

U2A G21A: the self-cleavage was 0.204.

Take U2A G21C: the self-cleavage was found to be 0.186.

As to U2G A47U, the self-cleavage was found to be 0.0492.

As to U2A U55C, the self-cleavage amounted to 0.153.

For the variant U2C G42A, the self-cleavage came to 0.0595.

Take U2A U58G: the self-cleavage was determined as 0.161.

For U2A U58C, the self-cleavage was found to be 0.21.
